The values below come from the supplement of paper PMC10126150.

± gives the standard deviation of the averaged measurements.
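Also: ATP exposure 15 min at 22 °C before imaging.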

In this series the test system is ATP. The series can be described thus: switch fluorescence ratio, 500 uM ATP over buffer (Cy3 cluster intensity, sum of 5 cycles each) (fold (ratio)); higher = stronger signal-on switching upon ATP binding; sequences stand for … in TCGTCGGCAGCGTCAGATGTGTATAAGAGACAGTTTTTTTTTTTTTTTTTTTTTTTTT…TC. As to conditions: aptamer strand: ATP DNA aptamer (quencher-CACCTGGGGGAGTATTGCGGAGGAAGG + anchor), 100 nM annealed; ATP concentration: 500 uM. Summed up: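 Switching-strand clusters labelled with Cy3 on a modified Illumina MiSeq flow-cell were annealed to 100 nM quencher-labelled ATP aptamer, imaged in selection buffer, and re-imaged after 15 min with 500 uM ATP at 22 °C. This was done over five cycles with NaOH stripping and re-annealing in between. The fluorescence ratio is summed target-cycle over summed buffer-cycle Cy3 intensity per cluster, averaged per switch-domain sequence, excluding clusters outside 100-1000 RFU.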
On to CGGCTCTTTG, for which the switch fluorescence ratio was determined as 0.985 ± 0.043.

With AAAATCTTAG, the switch fluorescence ratio amounted to 1 ± 0.036.

For GCAAATAGTT, the switch fluorescence ratio came out at 0.993 ± 0.024.

Turning to CTTACGGGCA, the switch fluorescence ratio is 1.03 ± 0.033.

Turning to CCTCGGTAGG, the switch fluorescence ratio came out at 1.02 ± 0.0051.

Regarding AAAGTTTTAT, the switch fluorescence ratio turned out to be 0.984 ± 0.025.

TGGGTAGGTG: the switch fluorescence ratio is 1.11 ± 0.028.

Regarding TTGGAAGGGT, the switch fluorescence ratio came to 1.01 ± 0.031.

As to TTGTTCCTTG, the switch fluorescence ratio is 1.01 ± 0.022.

Take TAACTAGGGG: the switch fluorescence ratio was 1.49 ± 0.042.

Regarding TTGGACTCCG, the switch fluorescence ratio worked out at 1.14 ± 0.15.

As for ACTCTTGTTG, the switch fluorescence ratio is 1.01 ± 0.022.

As for GATCGGCGTG, the switch fluorescence ratio stood at 1 ± 0.015.

For the sequence GATGGGATGC, the switch fluorescence ratio came out at 1.07 ± 0.071.

Take TTAGAGCGTT: the switch fluorescence ratio was found to be 1.72 ± 1.

In the case of AGGGAGGTTG, the switch fluorescence ratio came out at 1.01 ± 0.013.

In the case of TAGCAAGTG, the switch fluorescence ratio was 1.04 ± 0.041.

As to TCGGTAGGTG, the switch fluorescence ratio is 1.028 ± 0.0052.

Consider TGGGGGCGGG, for which the switch fluorescence ratio was 1 ± 0.033.

For the sequence GGTGGGTGTA, the switch fluorescence ratio was 0.957 ± 0.051.

For the sequence TTTTCCGCGG, the switch fluorescence ratio was 1.062 ± 0.0077.

On to GGGGGATTGG, for which the switch fluorescence ratio came out at 0.999 ± 0.032.

With ATGTCGGGCA, the switch fluorescence ratio was 0.986 ± 0.064.

In the case of CGGAACCACG, the switch fluorescence ratio came out at 1.08 ± 0.045.

As for AGGGATGTCT, the switch fluorescence ratio was 1.02 ± 0.043.

In the case of TTTAGAAATC, the switch fluorescence ratio was determined as 1.08 ± 0.16.

Turning to CTAGAGGGTA, the switch fluorescence ratio turned out to be 0.98923 ± 0.00094.

In the case of CTGACCGGGT, the switch fluorescence ratio is 1.014 ± 0.0015.

In the case of ATTTTCGGTT, the switch fluorescence ratio came to 0.997 ± 0.034.

Regarding GTGGGAAGGT, the switch fluorescence ratio was found to be 0.994 ± 0.038.

As to AAAGTTCGAA, the switch fluorescence ratio is 0.977 ± 0.035.

On to GGGGTAATTC, for which the switch fluorescence ratio came out at 1.06 ± 0.039.

For ATAATGGTC, the switch fluorescence ratio is 1.003 ± 0.008.

As for TGTATGTCGG, the switch fluorescence ratio turned out to be 0.959 ± 0.03.

For the sequence TCCGAGGGTT, the switch fluorescence ratio stood at 1.214 ± 0.011.

In the case of TGGGGGAGGA, the switch fluorescence ratio amounted to 0.979 ± 0.02.

TGCATTGCTA: the switch fluorescence ratio was determined as 1.04 ± 0.015.

For ATAATTGAGC, the switch fluorescence ratio was determined as 1.04 ± 0.027.

Turning to GGGGGGGCGA, the switch fluorescence ratio is 0.987 ± 0.041.

Turning to TTTTTTAATG, the switch fluorescence ratio worked out at 1 ± 0.033.

Turning to ATGAAAGGAT, the switch fluorescence ratio was 1.014 ± 0.0042.

For GGAAGCGCTC, the switch fluorescence ratio is 1 ± 0.02.

On to ATTTGATAGT, for which the switch fluorescence ratio amounted to 1.007 ± 0.0052.

On to GCAGGGATGG, for which the switch fluorescence ratio turned out to be 0.985 ± 0.035.

In the case of GGGCATAGG, the switch fluorescence ratio came to 1.008 ± 0.0014.

Regarding AATTGATTGG, the switch fluorescence ratio is 0.983 ± 0.032.

For GCTCGGGGGA, the switch fluorescence ratio amounted to 0.978 ± 0.022.

As for TAGGCCTCGA, the switch fluorescence ratio turned out to be 0.985 ± 0.026.

On to ACAGGGAAAG, for which the switch fluorescence ratio amounted to 1.04 ± 0.034.

For the sequence ATGGGCACGG, the switch fluorescence ratio worked out at 0.99 ± 0.025.

In the case of TTATTAAATC, the switch fluorescence ratio was found to be 1.008 ± 0.0064.

Regarding AGTGTGGTTA, the switch fluorescence ratio turned out to be 1.005 ± 0.01.

On to TTAAGATGAG, for which the switch fluorescence ratio stood at 0.961 ± 0.035.

As for CATATAAACT, the switch fluorescence ratio turned out to be 1.039 ± 0.0047.

Regarding CTGGGGCGTC, the switch fluorescence ratio is 0.993 ± 0.045.

In the case of TAATAGGTTT, the switch fluorescence ratio came to 1.1 ± 0.22.

In the case of TTACAAATTT, the switch fluorescence ratio is 0.9647 ± 0.0066.

With CCGTAAGAAT, the switch fluorescence ratio turned out to be 1.37 ± 0.055.

With CAAATAACGT, the switch fluorescence ratio is 0.9893 ± 0.0097.

On to TAATGGGTGA, for which the switch fluorescence ratio is 1.03 ± 0.016.

Consider TTTTTCTTAT, for which the switch fluorescence ratio turned out to be 1 ± 0.041.

Turning to GGCGTCTATC, the switch fluorescence ratio amounted to 1.01 ± 0.0096.

Consider TAAATTGGGG, for which the switch fluorescence ratio came out at 0.983 ± 0.024.

As to TATTTATCTT, the switch fluorescence ratio came to 0.989 ± 0.021.

For the sequence CCAATGACGT, the switch fluorescence ratio amounted to 0.979 ± 0.039.

With GTCAGGGGGT, the switch fluorescence ratio worked out at 1.04 ± 0.068.

On to TTATTTCCGG, for which the switch fluorescence ratio was 1.01 ± 0.028.

Consider TAATAAGTTT, for which the switch fluorescence ratio came out at 1.0262 ± 0.00033.

GTTGGGACTG: the switch fluorescence ratio amounted to 1 ± 0.055.

With TGTATTCAAT, the switch fluorescence ratio turned out to be 0.986 ± 0.013.

On to TCCAGTCATT, for which the switch fluorescence ratio was 0.998 ± 0.01.

As to TTAGTGGTTG, the switch fluorescence ratio amounted to 0.992 ± 0.014.

As for TGGGGGGAGA, the switch fluorescence ratio was found to be 1.01 ± 0.045.

As to TGCGAGGCTT, the switch fluorescence ratio came to 1.022 ± 0.0058.

TAATGCGCAA: the switch fluorescence ratio turned out to be 2.56 ± 1.6.

For AGTGAGCTGG, the switch fluorescence ratio worked out at 0.9733 ± 0.0031.

As to TGCTTATCTA, the switch fluorescence ratio stood at 1.016 ± 0.0077.

As for ATAACGGGGA, the switch fluorescence ratio stood at 0.999 ± 0.015.
